Reference: patent publication US20100075897A1, “METHOD FOR S[…] BIOACTIVE PEPTIDES AND APPLICATION THEREOF” (JINAN UNIVERSITY, priority 2008, published 2010)
Like-named read-outs stand apart in the source and are kept apart here. Ends that are not written are not given here.

T1: GLP-1 receptor
T1 chain: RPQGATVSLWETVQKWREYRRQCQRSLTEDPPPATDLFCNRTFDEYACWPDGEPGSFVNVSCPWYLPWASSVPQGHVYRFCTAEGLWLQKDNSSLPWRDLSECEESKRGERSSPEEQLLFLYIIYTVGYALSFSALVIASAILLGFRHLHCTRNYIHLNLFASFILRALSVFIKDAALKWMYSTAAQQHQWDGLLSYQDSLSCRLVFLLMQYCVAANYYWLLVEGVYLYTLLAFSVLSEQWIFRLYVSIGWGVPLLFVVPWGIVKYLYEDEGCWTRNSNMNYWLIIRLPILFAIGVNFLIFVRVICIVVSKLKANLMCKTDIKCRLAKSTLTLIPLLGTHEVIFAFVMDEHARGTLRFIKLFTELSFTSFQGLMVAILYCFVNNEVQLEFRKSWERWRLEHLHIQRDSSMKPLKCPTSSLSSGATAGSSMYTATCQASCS


Legend:
GLP-1 receptor [1] = conditions: CHO/GLP-1R, competition with 125I-GLP-1; fusion polypeptides after treatment with thrombin and DPP IV; read-out: Receptor binding affinity IC50
Experimental: (§1) The actual experimental steps were extracted from method as described by Montrose-Rafizadeh with proper modification as following:
(§2) (2) After cultured, removing supernatant, washing cells with cold PBS for three times, and then mixing with 0.5 mL 0.5 mol/L NaOH and 0.1% (mg/mL) SDS for 10 minutes. Irradiation of the cell lysis was determined by Apec-Series […] (ICN Biomedicals, Inc., Costa Mesa, Calif.).

GLP-1 receptor [2] = type: cell-based; conditions: CHO/GLP-1R, 30 minutes; GLP-1 released from ABP-LK-GLP; read-out: cAMP production EC50
Experimental: Samples were rotated and then centrifuged for 5 minutes (2000 g, 4° C.) to acquire precipitation. Supernatant was removed by vacuum and then the precipitation was dissolved into 300 μL of […] Tris buffer (pH7.5, containing […] EDTA), added with sodium bicarbonate (0.15 mg/mL) and zinc sulfate (0.15 mg/mL), followed by being placed on ice for 15 minutes. Centrifugation was performed at 2000 g at 4° C. for […] to remove precipitation and obtain a supernatant. The supernatant was analyzed with [^3H] cAMP competition assay kit (Amersham Biotech, QC).

GLP-1 receptor [3] = biological target: T1, GLP-1 receptor; experiment: competition with 125I-GLP-1 on CHO/GLP-1R cells; polypeptide digested with thrombin and DPP IV first
Experimental: as §1, §2

GLP-1 receptor [4] = biological target: T1, GLP-1 receptor; experiment: cell-based or functional assay
human serum albumin [5] = biological target: T2, human serum albumin (human, UniProt P02768 25-609); experiment: phage ELISA on plate-coated HSA, sample row, dilution column 1 of 12
T2 construct: Bought protein; coated on plates (ELISA) or coupled to a CM5 chip (SPR); also called HSA; human albumin
T2 sequence (P02768 25-609 limits assumed): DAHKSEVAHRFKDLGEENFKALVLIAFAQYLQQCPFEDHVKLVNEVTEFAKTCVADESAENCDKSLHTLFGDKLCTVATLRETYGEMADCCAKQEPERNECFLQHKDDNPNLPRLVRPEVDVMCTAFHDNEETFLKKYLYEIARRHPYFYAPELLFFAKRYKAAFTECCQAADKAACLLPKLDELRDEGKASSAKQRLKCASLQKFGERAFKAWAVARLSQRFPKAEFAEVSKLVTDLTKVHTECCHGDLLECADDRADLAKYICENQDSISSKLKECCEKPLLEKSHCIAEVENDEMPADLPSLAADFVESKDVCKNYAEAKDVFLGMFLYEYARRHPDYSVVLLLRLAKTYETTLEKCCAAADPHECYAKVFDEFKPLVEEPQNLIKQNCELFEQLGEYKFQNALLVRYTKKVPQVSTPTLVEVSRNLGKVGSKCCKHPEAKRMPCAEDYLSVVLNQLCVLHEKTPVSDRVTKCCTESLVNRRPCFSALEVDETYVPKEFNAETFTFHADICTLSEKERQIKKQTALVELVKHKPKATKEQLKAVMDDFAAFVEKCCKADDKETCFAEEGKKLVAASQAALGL

human serum albumin [6] = biological target: T2, human serum albumin; experiment: phage ELISA on plate-coated HSA, Table 3 absorbance (sample minus blank), dilution column 2 of 12
GLP-1 receptor [7] = biological target: T1, GLP-1 receptor; experiment: competition with 125I-GLP-1 on CHO/GLP-1R cells
human serum albumin [8] = biological target: T2, human serum albumin; experiment: phage ELISA on plate-coated HSA, sample row, dilution column 2 of 12
human serum albumin [9] = biological target: T2, human serum albumin; experiment: phage ELISA on plate-coated HSA, Table 3 absorbance (sample minus blank), dilution column 1 of 12
human serum albumin [10] = biological target: T2, human serum albumin; experiment: phage ELISA on plate-coated HSA, Table 3 absorbance (sample minus blank), dilution column 6 of 12
human serum albumin [11] = biological target: T2, human serum albumin; experiment: phage ELISA on plate-coated HSA, Table 3 absorbance (sample minus blank), dilution column 3 of 12

| Molecule | IC50 (GLP-1 receptor [3]) | cAMP production EC50 (GLP-1 receptor [4]) | also measured |
| --- | --- | --- | --- |
| LPHSHRAHSLPPFNPRPA HAEGTFTSDVSSYLEGQAAKEFIAWLVKGRG [PA6.2] |  |  | IC50 (GLP-1 receptor [1]): 2.2 ± 0.7 nM; EC50 (GLP-1 receptor [2]): 23 ± 2.4 nM |
| LPHSHRAHSLPPFNPRPP HAEGTFTSDVSSYLEGQAAKEFIAWLVKGRG [PP6.2] |  |  | IC50 (GLP-1 receptor [1]): 2.3 ± 0.8 nM; EC50 (GLP-1 receptor [2]): 21 ± 2.1 nM |
| PDICLPRWGCLWEFNPRGA HAEGTFTSDVSSYLEGQAAKEFIAWLVKGRG [DP3.1] |  |  | IC50 (GLP-1 receptor [1]): 2.1 ± 0.5 nM; EC50 (GLP-1 receptor [2]): 23 ± 2 nM |
| PLPHSHRAHSLPPFNPRGP HAEGTFTSDVSSYLEGQAAKEFIAWLVKGRG [DP6.2] |  |  | IC50 (GLP-1 receptor [1]): 2.1 ± 0.8 nM; EC50 (GLP-1 receptor [2]): 23 ± 2.1 nM |
| PNICLPRWGCLWDFNPRGA HAEGTFTSDVSSYLEGQAAKEFIAWLVKGRG [DP4.1] |  |  | IC50 (GLP-1 receptor [1]): 2.5 ± 0.8 nM; EC50 (GLP-1 receptor [2]): 19 ± 2.1 nM |
| PSSLLHWTHKIPALFNPRGS HAEGTFTSDVSSYLEGQAAKEFIAWLVKGRG [DP8.3] |  |  | IC50 (GLP-1 receptor [1]): 2.5 ± 0.6 nM; EC50 (GLP-1 receptor [2]): 23 ± 2.2 nM |
| DP8.3 fusion polypeptide (ABP-LK-GLP fusion polypeptide, copied as printed with PSS at the N-terminus (DP8.1 and DP8.2 have PS); also called ABP-LK-GLP) peptide: PSSLLHWTHKIPALFNPRGSHAEGTFTSDVSSYLEGQAAKEFIAWLVKGRG | 2.5 nM | 23 nM |  |
| NICLPRWGCLWD (not fully specified (bridges); cysteine pairing not given here; also: displayed on M13 phage coat protein, Tested as whole phage particles, not as free peptide; not shown: not described) [Phage ID NO. 4 (M13 phage displaying the peptide of SEQ ID NO. 4, NICLPRWGCLWD)] |  |  | absorbance at 405 nm (human serum albumin [5]): 0.08; absorbance at 405 nm (human serum albumin [6]): 0.04 |
| FNPRHAEGTFTSDVSSYLEGQAAKEFIAWLVKGRG (GLP-1(7-37) with N-terminal FNPR) [FN-GLP] |  | > 1000 nM | IC50 (GLP-1 receptor [7]): 450 nM |
| LVPRHAEGTFTSDVSSYLEGQAAKEFIAWLVKGRG (GLP-1(7-37) with N-terminal LVPR) [LV-GLP] |  | > 1000 nM | IC50 (GLP-1 receptor [7]): 467 nM |
| LPHSHRAHSLPPFNPRGAHAEGTFTSDVSSYLEGQAAKEFIAWLVKGRG (ABP-LK-GLP fusion polypeptide; also called ABP-LK-GLP) [M6.1 fusion polypeptide] | 2.2 nM | 24 nM |  |
| LPHSHRAHSLPPFNPRPPHAEGTFTSDVSSYLEGQAAKEFIAWLVKGRG (ABP-LK-GLP fusion polypeptide; also called ABP-LK-GLP) [PP6.2 fusion polypeptide] | 2.3 nM | 21 nM |  |
| LPHSHRAHSLPPFNPRGPHAEGTFTSDVSSYLEGQAAKEFIAWLVKGRG (ABP-LK-GLP fusion polypeptide; also called ABP-LK-GLP) [M6.2 fusion polypeptide] | 2.3 nM | 21 nM |  |
| LPHSHRAHSLPPFNPRPAHAEGTFTSDVSSYLEGQAAKEFIAWLVKGRG (ABP-LK-GLP fusion polypeptide; also called ABP-LK-GLP) [PA6.2 fusion polypeptide] | 2.2 nM | 23 nM |  |
| PLPHSHRAHSLPPFNPRGAHAEGTFTSDVSSYLEGQAAKEFIAWLVKGRG (ABP-LK-GLP fusion polypeptide; also called ABP-LK-GLP) [DP6.1 fusion polypeptide] | 2 nM | 23 nM |  |
| PLPHSHRAHSLPPFNPRGPHAEGTFTSDVSSYLEGQAAKEFIAWLVKGRG (ABP-LK-GLP fusion polypeptide; also called ABP-LK-GLP) [DP6.2 fusion polypeptide] | 2.1 nM | 23 nM |  |
| NVCLPKWGCLWE (not fully specified (bridges); cysteine pairing not given here; also: displayed on M13 phage coat protein, Tested as whole phage particles, not as free peptide; not shown: not described) [Phage ID NO. 1 (M13 phage displaying the peptide of SEQ ID NO. 1, NVCLPKWGCLWE)] |  |  | absorbance at 405 nm (human serum albumin [8]): 0.09; absorbance at 405 nm (human serum albumin [9]): 0.04 |

| Molecule | IC50 (GLP-1 receptor [3]) | cAMP production EC50 (GLP-1 receptor [4]) | also measured |
| --- | --- | --- | --- |
| PNICLPRWGCLWDFNPRGSHAEGTFTSDVSSYLEGQAAKEFIAWLVKGRG (ABP-LK-GLP fusion polypeptide; also called ABP-LK-GLP) [DP4.3 fusion polypeptide] | 2.1 nM | 18 nM |  |
| PDICLPRWGCLWEFNPRGSHAEGTFTSDVSSYLEGQAAKEFIAWLVKGRG (ABP-LK-GLP fusion polypeptide; also called ABP-LK-GLP) [DP3.3 fusion polypeptide] | 2.3 nM | 21 nM |  |
| PDICLPRWGCLWEFNPRGAHAEGTFTSDVSSYLEGQAAKEFIAWLVKGRG (ABP-LK-GLP fusion polypeptide; also called ABP-LK-GLP) [DP3.1 fusion polypeptide] | 2.1 nM | 23 nM |  |
| PNICLPRWGCLWDFNPRGAHAEGTFTSDVSSYLEGQAAKEFIAWLVKGRG (ABP-LK-GLP fusion polypeptide; also called ABP-LK-GLP) [DP4.1 fusion polypeptide] | 2.5 nM | 19 nM |  |
| PDICLPRWGCLWEFNPRGPHAEGTFTSDVSSYLEGQAAKEFIAWLVKGRG (ABP-LK-GLP fusion polypeptide; also called ABP-LK-GLP) [DP3.2 fusion polypeptide] | 2.3 nM | 19 nM |  |
| LPWHLKYREPPR (also: displayed on M13 phage coat protein, Tested as whole phage particles, not as free peptide; not shown: not described) [Phage ID NO. 5 (M13 phage displaying the peptide of SEQ ID NO. 5, LPWHLKYREPPR)] |  |  | absorbance at 405 nm (human serum albumin [10]): 0.08 |
| DVCLPQWGCLWG (not fully specified (bridges); cysteine pairing not given here; also: displayed on M13 phage coat protein, Tested as whole phage particles, not as free peptide; not shown: not described) [Phage ID NO. 2 (M13 phage displaying the peptide of SEQ ID NO. 2, DVCLPQWGCLWG)] |  |  | absorbance at 405 nm (human serum albumin [11]): 0.04 |
| LPHSHRAHSLPP (also: displayed on M13 phage coat protein, Tested as whole phage particles, not as free peptide; not shown: not described) [Phage ID NO. 6 (M13 phage displaying the peptide of SEQ ID NO. 6, LPHSHRAHSLPP)] |  |  | absorbance at 405 nm (human serum albumin [8]): 0.09; absorbance at 405 nm (human serum albumin [11]): 0.05 |
| SLLHWTHKIPALFNPRGAHAEGTFTSDVSSYLEGQAAKEFIAWLVKGRG (ABP-LK-GLP fusion polypeptide; also called ABP-LK-GLP) [M8.1 fusion polypeptide] | 2.2 nM | 24 nM |  |
| SLLHWTHKIPALFNPRGPHAEGTFTSDVSSYLEGQAAKEFIAWLVKGRG (ABP-LK-GLP fusion polypeptide; also called ABP-LK-GLP) [M8.2 fusion polypeptide] | 1.9 nM | 21 nM |  |
| SLLHWTHKIPALFNPRGSHAEGTFTSDVSSYLEGQAAKEFIAWLVKGRG (ABP-LK-GLP fusion polypeptide; also called ABP-LK-GLP) [M8.3 fusion polypeptide] | 2.2 nM | 21 nM |  |
| PSLLHWTHKIPALFNPRGAHAEGTFTSDVSSYLEGQAAKEFIAWLVKGRG (ABP-LK-GLP fusion polypeptide; also called ABP-LK-GLP) [DP8.1 fusion polypeptide] | 2.2 nM | 24 nM |  |
| PSLLHWTHKIPALFNPRGPHAEGTFTSDVSSYLEGQAAKEFIAWLVKGRG (ABP-LK-GLP fusion polypeptide; also called ABP-LK-GLP) [DP8.2 fusion polypeptide] | 1.9 nM | 22 nM |  |
| DICLPRWGCLWEFNPRGAHAEGTFTSDVSSYLEGQAAKEFIAWLVKGRG (ABP-LK-GLP fusion polypeptide; also called ABP-LK-GLP) [M3.1 fusion polypeptide] | 2.2 nM | 22 nM |  |
| NICLPRWGCLWDFNPRGSHAEGTFTSDVSSYLEGQAAKEFIAWLVKGRG (ABP-LK-GLP fusion polypeptide; also called ABP-LK-GLP) [M4.3 fusion polypeptide] | 2.2 nM | 19 nM |  |
| DICLPRWGCLWEFNPRGPHAEGTFTSDVSSYLEGQAAKEFIAWLVKGRG (ABP-LK-GLP fusion polypeptide; also called ABP-LK-GLP) [M3.2 fusion polypeptide] | 2.1 nM | 21 nM |  |
| NICLPRWGCLWDFNPRGPHAEGTFTSDVSSYLEGQAAKEFIAWLVKGRG (ABP-LK-GLP fusion polypeptide; also called ABP-LK-GLP) [M4.2 fusion polypeptide] | 2.2 nM | 21 nM |  |
